Laboratory results as given in patent publication US9101618B2, “Method for treating and/or preventing neurodegenerative disease by adiponectin receptor agonist” (TOKYO METROPOLITAN INSTITUTE OF MEDICAL SCIENCE, priority 2011, dated 2015).

What was measured:
[1] = biological target: T1, human α (alpha)-synuclein recombinant protein (Homo sapiens, UniProt P37840); test: Protein-protein interaction of α-synuclein and adiponectin in test tube (western blotting); format: binding; details: 48 hours, 37° C.
T1 construct: made in house
Method: Human adiponectin recombinant protein (ProSpec, IWAI CHEMICALS COMPANY LTD.) 0.5 μg and human α (alpha)-synuclein recombinant protein (Hashimoto et al., Brain Res. 799:301 (1998)) 1.0 μg were incubated for 48 hours in 100 mM sodium acetate solution at 37° C., 500 rpm (Thermomixer, Eppendorf Co., Ltd.). Later, an analysis via western blotting was performed in accordance with procedures similar to those in example 1 through example 6. Each sample was dissolved in 1× sample buffer without 2ME, and heated at 95° C. for 10 min. With regard to a control experiment, incubation was performed at room temperature. Particularly, instead of α (alpha)-synuclein, BSA (1.0 μg) was incubated with adiponectin.

[2] = system: B103 neuroblastoma cells (α (alpha)S); test: Adiponectin addition (1): α-synuclein aggregation (western blotting of fractions); format: cell-based, rat; details: 1 μg/mL, 24 hours, serum-free medium
Method: The B103 neuroblastoma cells (α (alpha)S) and the B103 neuroblastoma cells (vector) were prepared and cultured in accordance with the procedures described in example 3. The B103 neuroblastoma cells (α (alpha)S) and the B103 neuroblastoma cells (vector) were inoculated on the 6-well plate and cultured to a state of about 80-90% confluence. After washing with PBS, the aforementioned cells were further cultured for 24 hours in a test medium prepared by adding recombinant human adiponectin (1 μg/mL, trimer, PROSPEC) to a serum-free medium. As a control, there was used a control medium prepared by adding thereto PBS instead of recombinant human adiponectin. After culturing, there were prepared the TBS soluble fraction, the SDS soluble fraction and the formic acid soluble fraction in accordance with the procedures described in example 1. Further, western blotting was performed in accordance with the procedures described in example 1. In order to evaluate α (alpha)-synuclein aggregation, an anti-α (alpha)-synuclein mouse monoclonal antibody (syn-1, Nippon Becton Dickinson Company, Ltd) was used as a primary antibody when performing western blotting, the anti-α (alpha)-synuclein mouse monoclonal antibody being diluted appropriately before use. […]

p38 MAPK = test: Adiponectin addition (2): signal transduction, phospho-p38 MAPK western blotting; format: cell-based, rat; details: 1 μg/mL, 0, 10 and 30 min
Method: The B103 neuroblastoma cells (α (alpha)S) and the B103 neuroblastoma cells (vector) were inoculated on a 5 cm dish and cultured to a state of about 80-90% confluence. Later, the aforementioned cells were washed with PBS, and then cultured in a serum-free medium for four hours. After washing with PBS, the cells were then cultured in a test medium (adiponectin-added group) prepared by adding recombinant human adiponectin (1_μg/mL, trimer, PROSPEC) to a serum-free medium. As a control, there was used a control medium (adiponectin non-added group) prepared by adding thereto PBS instead of recombinant human adiponectin. A culture time was 0, 10 and 30 min when evaluating signal transduction, 0, 1 and 2 hour(s) when evaluating tau phosphorylation. The cells collected were lysed with a cell lysis solution (1% TritonX-100, 1% Nonidet P-40, 50 mM HEPES, 150 mM NaCl, 10% glycerol, 1.5 mM MgCl2, 1 mM EGTA, 100_mM sodium fluoride, a protease inhibitor (NACALAI TESQUE, INC.)). Supernatants were collected after performing centrifugation at 100,000×g for 30 min, and were used as surfactant soluble fractions when performing western blotting. Here, western blotting was performed in accordance with the procedures described in example 1. […]

B103 neuroblastoma cells = test: Cytotoxicity due to the addition of adiponectin; format: cell-based, rat; details: 1 μg/mL
Method: The B103 neuroblastoma cells (α (alpha)S) and the B103 neuroblastoma cells (vector) were prepared and cultured in accordance with the procedures described in example 3. The B103 neuroblastoma cells (α (alpha)S) and the B103 neuroblastoma cells (vector) were inoculated on the 6-well plate and cultured to a state of about 80-90% confluence. After washing with PBS, the aforementioned cells were further cultured for 24 hours in a test medium prepared by adding recombinant human adiponectin (1 μg/mL, trimer, PROSPEC) to a serum-free medium. As a control, there was used a control medium prepared by adding thereto PBS instead of recombinant human adiponectin. After culturing, there were prepared the TBS soluble fraction, the SDS soluble fraction and the formic acid soluble fraction in accordance with the procedures described in example 1. Further, western blotting was performed in accordance with the procedures described in example 1. In order to evaluate α (alpha)-synuclein aggregation, an anti-α (alpha)-synuclein mouse monoclonal antibody (syn-1, Nippon Becton Dickinson Company, Ltd) was used as a primary antibody when performing western blotting, the anti-α (alpha)-synuclein mouse monoclonal antibody being diluted appropriately before use. Additionally, an HRP labeled anti-mouse IgG antibody (DAKO) was used as a secondary antibody, the HRP labeled anti-mouse IgG antibody being diluted appropriately before use.
The B103 neuroblastoma cells (α (alpha)S) and the B103 neuroblastoma cells (vector) were inoculated on a 5 cm dish and cultured to a state of about 80-90% confluence. Later, the aforementioned cells were washed with PBS, and then cultured in a serum-free medium for four hours. After washing with PBS, the cells were then cultured in a test medium (adiponectin-added group) prepared by adding recombinant human adiponectin (1_μg/mL, trimer, PROSPEC) to a serum-free medium. As a control, there was used a control medium (adiponectin non-added group) prepared by adding thereto PBS instead of recombinant human adiponectin. […]

B1: adiponectin: recombinant human adiponectin (trimer, PROSPEC) added to serum-free medium at 1 μg/mL (protein, UniProt Q15848 19-244, looked up)
Adiponectin: ETTTQGPGVLLPLPKGACTGWMAGIPGHPGHNGAPGRDGRDGTPGEKGEKGDPGLIGPKGDIGETGVPGAEGPRGFPGIQGRKGEPGEGAYVYRSAFSVGLETYVTIPNMPIRFTKIFYNQQNHYDGSTGKFHCNIPGLYYFAYHITVYMKDVKVSLFKKDKAMLFTYDQYQENNVDQASGSVLLHLEVGDQVWLQVYGEGERNGLYADNDNDSTFTGFLLYHDTN
dimer of adiponectin ([1]; 0.5 μg adiponectin incubated with 1.0 μg α-synuclein): further increased | adiponectin aggregation ([1]; in the presence of α-synuclein, densitometer values of aggregate range): significantly promoted | α-synuclein in culture supernatant [2]: decreased | α-synuclein in the formic acid soluble fraction [2]: decreased | phosphorylation of p38 MAPK (p38 MAPK): promoted | cytotoxicity (B103 neuroblastoma cells; 24 hours (α-synuclein aggregation experiment)): not particularly observed | cytotoxicity (B103 neuroblastoma cells; signal transduction experiment): not particularly observed | cytotoxicity (B103 neuroblastoma cells; tau phosphorylation experiment): not particularly observed
